Data on one sequence can be found in publication PMC12113857.

This data set deals with T1, MprA(D51E) D51E (Corynebacterium glutamicum ATCC 13032), ORF:c49de587.
T1 sequence: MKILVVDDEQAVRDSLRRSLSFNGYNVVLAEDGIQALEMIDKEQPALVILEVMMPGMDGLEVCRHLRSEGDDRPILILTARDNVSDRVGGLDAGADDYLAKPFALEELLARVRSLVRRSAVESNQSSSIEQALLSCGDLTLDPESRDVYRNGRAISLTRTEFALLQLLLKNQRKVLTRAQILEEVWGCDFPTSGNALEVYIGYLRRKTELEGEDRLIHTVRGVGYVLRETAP
Nature of the data set: EMSA. To be noted: Buffer P: 50 mM Tris-HCl pH 7.5, 50 mM KCl, 10 mM MgCl2, 0.5 mM EDTA, 10% glycerol; 30 min at 20 C; DNA 25-107 nM, protein 0-64-fold molar excess; 6% native ….

As to “CGATACCCTTTTCGTCTTCCAGTCCGTGACAGACTTCCTCCCAATTAAGACGTCCACGCGTTGGAACATATTTCACTTATGCTAACACCTCTTAAGCATAAAGAAGCCAGTTACCTCCTCATTTTAAGAGAAGATAACTGGCTCTTGTTAAATTCTTACCTACAAAAGGTTGTAGGCGATGAATTTAAGGTTTAGAACTGCTCTACGTCCACGAGACCGAGCTGTGCTGCCTTAACCAGACGGCGTGGGATGCGAACGGTCTGACCGTCGATCTTGACCTCCTGAAGGGCGACATTGTCG (double strand) [mprA promoter]”, the binding entry was “binds”.
